Source: publication PMC6938348
pKd: −log10 of the molar value. Where two headings read alike, the source gives them in different places. Blank lines part the entries; values can stand above or below the substance they belong to.

How the values were obtained:
[1] = molecular target: Her2 (human (endogenous in SKOV3 and JIMT-1)) (UniProt P04626)
[2] = molecular target: Her2 on cells (SKOV3, JIMT-1, MCF7) (human (endogenous in SKOV3, JIMT-1, MCF7)) (UniProt P04626)
[3] = molecular target: Her2 on cells (SKOV3, JIMT-1, MCF7) (human (endogenous in SKOV3, JIMT-1, MCF7)) (UniProt P04626); remark: listed apart in the source
[4] = molecular target: Her2 on cells (SKOV3, JIMT-1, MCF7) (human (endogenous in SKOV3, JIMT-1, MCF7)) (UniProt P04626); assay: flow cytometry on cells; saturation binding of full-size antibodies on live low-Her2 MCF7 cells, 4°C 2 h, 0 to 200 nM or 1 μM, washed, anti-human Fc AlexaFluor488-(Fab')2 detection; apparent KD
[5] = molecular target: Her2 on cells (SKOV3, JIMT-1, MCF7) (human (endogenous in SKOV3, JIMT-1, MCF7)) (UniProt P04626); assay: flow cytometry on cells; saturation binding of full-size antibodies on live high-Her2 SKOV3 cells, 4°C 2 h, 0 to 200 nM or 1 μM, washed, anti-human Fc AlexaFluor488-(Fab')2 detection; apparent KD
[6] = molecular target: Her2 (human (endogenous in SKOV3 and JIMT-1)) (UniProt P04626); remark: listed apart in the source
[7] = molecular target: soluble Her2 ectodomain (Homo sapiens (assumed; species and source not stated)) (UniProt P04626); assay: SPR; antibody captured on an anti-hFc CM-5 surface, soluble Her2 ectodomain flowed (monovalent binding); single cycle kinetics in duplicate, 25°C, PBS with […] EDTA and 0.05% Tween 20; 1:1 binding model; Biacore T200
[8] = molecular target: Her2 (human (endogenous in SKOV3 and JIMT-1)) (UniProt P04626); remark: listed apart in the source
[9] = molecular target: Her2 (human (endogenous in SKOV3 and JIMT-1)) (UniProt P04626); remark: listed apart in the source
[10] = molecular target: Her2 (human (endogenous in SKOV3 and JIMT-1)) (UniProt P04626); remark: listed apart in the source
[11] = molecular target: Her2 (human (endogenous in SKOV3 and JIMT-1)) (UniProt P04626); remark: listed apart in the source
[12] = molecular target: Herceptin full-size antibody variant 7–5 (H-Y57A, L-F53N, L-Y92A); assay: SPR; antibody captured on an anti-hFc CM-5 surface, soluble Her2 ectodomain flowed (monovalent binding); single cycle kinetics in duplicate, 25°C, PBS with […] EDTA and 0.05% Tween 20; 1:1 binding model; Biacore T200
[13] = molecular target: Herceptin full-size antibody variant 7–6 (H-Y57A, L-N30D); assay: as above
[14] = molecular target: bH1 full-size antibody variant 14–13 (H-D98W, H-G99D); assay: as above
[15] = molecular target: bH1 full-size antibody variant 15–13 (H-G99D); assay: as above
[16] = molecular target: bH1 full-size antibody variant 16–13 (H-G99R); assay: as above

- EC50 of internalization, direct (pHAb-conjugated antibody variant), JIMT-1 cells, 37°C, 18 h, high content imaging [6]: 70 pM
- EC50 of internalization, direct (pHAb-conjugated antibody variant), SKOV3 cells, 37°C, 18 h, high content imaging [6]: 0.41 nM
- EC50 of internalization, indirect (antibody variant + pHAb-secondary antibody), SKOV3 cells, 37°C, 18 h, high content imaging [6]: 0.41 nM
Substance: Herceptin full-size antibody variant 12-9 (H-D98F, H-D31K, L-D28K)

- pKd [4]: 9.02
- pKd [5]: 8.50
Substance: Herceptin full-size antibody variant 7–6 (H-Y57A, L-N30D)

- pKd [4]: 9.29
- pKd [5]: 8.59
- pKd [7]: 8.16
Substance: Herceptin full-size antibody variant 2–6 (L-N30D)

- pKd [4]: 9.17
- pKd [5]: 8.63
- pKd [7]: 7.79
Substance: Herceptin full-size antibody variant 7–3 (H-Y57A, L-F53N)

- EC50 of internalization, direct (pHAb-conjugated antibody variant), SKOV3 cells, 37°C, 18 h, high content imaging [9]: 74.9 nM
Substance: bH1 full-size antibody variant 16-13 (H-G99R)

- pKd [4]: 9.41
- pKd [5]: 8.70
- pKd [7]: 8.63
Substance: Herceptin full-size antibody variant 2–4 (L-Y92A)

- EC50 of internalization, direct (pHAb-conjugated antibody variant), SKOV3 cells, 37°C, 18 h, high content imaging [11]: 19.2 nM
- EC50 of internalization, indirect (antibody variant + pHAb-secondary antibody), SKOV3 cells, 37°C, 18 h, high content imaging [11]: 1.99 nM
Substance: Herceptin full-size antibody variant 7-5 (H-Y57A, L-F53N, L-Y92A)

- pKd [5]: 8.70
- pKd [7]: 7.65
Substance: Herceptin full-size antibody variant 2–5 (L-F53N, L-Y92A)
- IC50 of cytotoxicity, indirect ADC screen (DM1-conjugated secondary antibody), JIMT1 cells [2]: 8.7 nM
- IC50 of cytotoxicity, indirect ADC screen (DM1-conjugated secondary antibody), MCF7 cells [2]: 8.1 nM
- IC50 of cytotoxicity, indirect ADC screen (MMAE-conjugated secondary antibody), JIMT1 cells [2]: 24.4 nM
- IC50 of cytotoxicity, indirect ADC screen (MMAE-conjugated secondary antibody), MCF7 cells [2]: 20.6 nM
- IC50 of cytotoxicity, antibody directly conjugated to DM1, SKOV3 cells [3]: 0.161 nM
- IC50 of cytotoxicity, antibody directly conjugated to PNU, MCF7 cells [3]: 4.72 nM
- IC50 of cytotoxicity, antibody directly conjugated to PNU, SKOV3 cells [3]: 0.138 nM

- pKd [4]: 9.33
- pKd [5]: 8.62
- pKd [7]: 7.75
Substance: Herceptin full-size antibody variant 7–4 (H-Y57A, L-Y92A)

Further lines, the substance ahead of its results:

Substance: bH1 full-size antibody variant 14-13 (H-D98W, H-G99D)
- EC50 of internalization, direct (pHAb-conjugated antibody variant), SKOV3 cells, 37°C, 18 h, high content imaging [1]: 59 nM
- EC50 of internalization, indirect (antibody variant + pHAb-secondary antibody), SKOV3 cells, 37°C, 18 h, high content imaging [1]: 3.75 nM

Substance: Herceptin full-size antibody variant 7–5 (H-Y57A, L-F53N, L-Y92A)
- IC50 of cytotoxicity, indirect ADC screen (DM1-conjugated secondary antibody), JIMT1 cells [2]: 15.7 nM
- IC50 of cytotoxicity, indirect ADC screen (MMAE-conjugated secondary antibody), JIMT1 cells [2]: 11000 nM
- IC50 of cytotoxicity, indirect ADC screen (MMAE-conjugated secondary antibody), MCF7 cells [2]: 32.4 nM
- IC50 of cytotoxicity, indirect ADC screen (MMAE-conjugated secondary antibody), SKOV3 cells [2]: 0.204 nM
- IC50 of cytotoxicity, antibody directly conjugated to DM1, SKOV3 cells [3]: 2.01 nM
- IC50 of cytotoxicity, antibody directly conjugated to PNU, SKOV3 cells [3]: 2.08 nM
- pKd [4]: 6.23
- pKd [5]: 8.46

Substance: WT Herceptin full-size antibody (variant 2-1, Parent 1)
- EC50 of internalization, direct (pHAb-conjugated antibody variant), JIMT-1 cells, 37°C, 18 h, high content imaging [8]: 0.21 nM
- EC50 of internalization, direct (pHAb-conjugated antibody variant), SKOV3 cells, 37°C, 18 h, high content imaging [8]: 0.32 nM
- EC50 of internalization, indirect (antibody variant + pHAb-secondary antibody), SKOV3 cells, 37°C, 18 h, high content imaging [8]: 0.55 nM

Substance: Herceptin full-size antibody variant 2–3 (L-F53N)
- pKd [4]: 9.52
- pKd [5]: 8.71
- pKd [7]: 8.68

Substance: Herceptin full-size antibody variant 11-9 (H-D98F, H-D31M, L-D28K)
- EC50 of internalization, direct (pHAb-conjugated antibody variant), JIMT-1 cells, 37°C, 18 h, high content imaging [10]: 70 pM
- EC50 of internalization, direct (pHAb-conjugated antibody variant), SKOV3 cells, 37°C, 18 h, high content imaging [10]: 0.32 nM
- EC50 of internalization, indirect (antibody variant + pHAb-secondary antibody), SKOV3 cells, 37°C, 18 h, high content imaging [10]: 0.44 nM

Substance: soluble Her2 ectodomain (from UniProt P04626 23-652) (domain or fragment)
- pKd [12]: 7.17
- pKd [13]: 7.36
- pKd [14]: 6.60
- kon [14]: 78000 M⁻¹ s⁻¹
- pKd [15]: 6.53
- pKd [16]: 6.38
- kon [16]: 120000 M⁻¹ s⁻¹

Substance: Herceptin full-size antibody variant 7–1 (H-Y57A)
- pKd [4]: 9.28
- pKd [5]: 8.64
- pKd [7]: 8.80
